In publication doi:10.1101/2024.04.24.591037:

What was measured:
[1] = molecular target: ΔN-terminal GCN2 HRSL, mutant Δ(V996-N1009) of Kluyveromyces marxianus GCN2 HRSL (Kluyveromyces marxianus); test: SEC
[2] = molecular target: Kluyveromyces marxianus GCN2 HRSL domain (residues 996-1511) (Kluyveromyces marxianus); test: SEC

Substance	stoichiometry N [1]	stoichiometry N [2]
ΔN-terminal GCN2 HRSL, mutant Δ(V996-N1009) of Kluyveromyces marxianus GCN2 HRSL (domain or fragment)	2	
Kluyveromyces marxianus GCN2 HRSL domain (residues 996-1511) (domain or fragment)		2
